One may read the stoichiometry N as the number of molecules, sites or subunits per partner or assembly.

We go through three molecules from article PMC4714889, “Dissecting the Molecular Mechanism of Nucleotide-Dependent Activation of the KtrAB K^+ Transporter” (PLoS Biology, 2016).

The chains are these.
B1: KtrAΔC, C-terminal domain truncated KtrA (tandem of two N-terminal KtrA domains) (domain or fragment, Bacillus subtilis)
chain: MGRIKNKQFAVIGLGRFGGSICKELHRMGHEVLAVDINEEKVNAYASYATHAVIANATEENELLSLGIRNFEYVIVAIGANIQASTLTTLLLKELDIPNIWVKAQNYYHHKVLEKIGADRIIHPEKDMGVKIAQSLSDENVLNYLEGSKQFAVIGLGRFGGSICKELHRMGHEVLAVDINEEKVNAYASYATHAVIANATEENELLSLGIRNFEYVIVAIGANIQASTLTTLLLKELDIPNIWVKAQNYYHHKVLEKIGADRIIHPEKDMGVKIAQSLSDENVLNY
notes: KtrA N-terminal domain, Bacillus subtilis, GenBank KIX81590.1, residues 1-144 (first copy of the tandem); linker between the two N-terminal domains; KtrA N-terminal domain, Bacillus subtilis, GenBank KIX81590.1, residues 7-144 (second copy of the tandem); Lacks KtrA residues 145-222 (the whole C-terminal domain); Forms an octameric ring counted in N-terminal domains; each chain carries two of …
B2: KtrA (wild type), cytosolic RCK ring protein of the KtrAB K+ transporter from Bacillus subtilis (natural protein, UniProt O32080 1-222, looked up)
chain: MGRIKNKQFAVIGLGRFGGSICKELHRMGHEVLAVDINEEKVNAYASYATHAVIANATEENELLSLGIRNFEYVIVAIGANIQASTLTTLLLKELDIPNIWVKAQNYYHHKVLEKIGADRIIHPEKDMGVKIAQSLSDENVLNYIDLSDEYSIVELLATRKLDSKSIIDLNVRAKYGCTILAIKHHGDICLSPAPEDIIREQDCLVIMGHKKDIKRFENEGM
notes: KtrA, RCK domain protein of the KtrAB K+ transporter, Bacillus subtilis, GenBank KIX81590.1; eluted and kept with ADP or ATP; also called full-length KtrA; wild type KtrA; source: E. coli BL21(DE3), purified (anion exchange, ADP-agarose, Superdex-S200)
B3: KtrB (wild type), membrane protein of the KtrAB K+ transporter from Bacillus subtilis (natural protein)
chain: MTLQKDKVIKWVRFTPPQVLAIGFFLTIIIGAVLLMLPISTTKPLSWIDALFTAASATTVTGLAVVDTGTQFTVFGQTVIMGLIQIGGLGFMTFAVLIVMILGKKIGLKERMLVQEALNQPTIGGVIGLVKVLFLFSISIELIAALILSIRLVPQYGWSSGLFASLFHAISAFNNAGFSLWPDNLMSYVGDPTVNLVITFLFITGGIGFTVLFDVMKNRRFKTFSLHTKLMLTGTLMLNAIAMLTVFILEYSNPGTLGHLHIVDKLWASYFQAVTPRTAGFNSLDFGSMREGTIVFTLLLMFIGAGSASTASGIKLTTFIVILTSVIAYLRGKKETVIFRRSIKYPIIIKALAVSVTSLFIVFLGIFALTITEQAPFLQIVFETFSAFGTVGLTMGLTPELTTAGKCIIIVIMFIGRIGPLTFVFSFAKTEQSNIRYPDGEVFTG
notes: KtrB, membrane protein of the KtrAB K+ transporter, Bacillus subtilis, GenBank KIX81591.1; In detergent (DDM or cymal-6), or reconstituted in E. coli polar lipid liposomes for the float-up; also called KtrB wt; wild-type KtrB; source: E. coli BL21(DE3), purified (DDM extraction, Talon resin, thrombin, Superdex-200); not shown: His tag, N-terminal, cleaved

Data set [1] deals with the molecule itself. Kind of data set: crystal structure; KtrAΔCB with bound ADP, data to 6 Å, molecular replacement, 4-fold and 8-fold averaging, DEN refinement; crystals from 100 mM Tris-HCl pH 8.5, 18%–22% PEG400, 100–200 mM CaCl2, 20°C.
Data set [2] has as its target B3. Kind of data set: SEC; size-exclusion purified KtrB (wild type or mutant) mixed with an excess of KtrA (wild type, KtrAC0 or KtrAΔC), run in the presence of ATP or ADP, in detergent; SDS-PAGE of the fractions. The conditions noted are these: both partners purified.
Data set [3] deals with the molecule itself. Kind of data set: crystal structure; wild-type KtrAB with ADP, 8 Å diffraction dataset; molecular replacement searches and an averaged map only (low resolution model); crystals from 100 mM Hepes pH 7.5, 1 M NaCl, 10% PEG4000, 20°C.

B1: the binding result in data set [1] and in data set [2] was “binds” each time.
In the case of B2, the binding result in data set [2] and in data set [3] was “binds” each time.
As to B3, in data set [1], the “stoichiometry N” value stood at 2.
